Experimental data: PMC4477864

Tests used:
[1] = molecular target: tubulin purified from cow brain (phosphocellulose-purified), assembled as vinblastine-induced curls, (cow) (UniProt Q2T9S0); test: co-sedimentation
[2] = molecular target: CENP-F N558 (amino acids 1–558) (human); test: sucrose gradient sedimentation + SEC
[3] = molecular target: subtilisin-treated Taxol-stabilized MTs (S-MTs) (cow) (UniProt Q2T9S0); test: TIRF microscopy of MT-associated GFP fluorescence
Chain of subtilisin-treated Taxol-stabilized MTs (S-MTs) (cow) (Q2T9S0 whole entry, looked up): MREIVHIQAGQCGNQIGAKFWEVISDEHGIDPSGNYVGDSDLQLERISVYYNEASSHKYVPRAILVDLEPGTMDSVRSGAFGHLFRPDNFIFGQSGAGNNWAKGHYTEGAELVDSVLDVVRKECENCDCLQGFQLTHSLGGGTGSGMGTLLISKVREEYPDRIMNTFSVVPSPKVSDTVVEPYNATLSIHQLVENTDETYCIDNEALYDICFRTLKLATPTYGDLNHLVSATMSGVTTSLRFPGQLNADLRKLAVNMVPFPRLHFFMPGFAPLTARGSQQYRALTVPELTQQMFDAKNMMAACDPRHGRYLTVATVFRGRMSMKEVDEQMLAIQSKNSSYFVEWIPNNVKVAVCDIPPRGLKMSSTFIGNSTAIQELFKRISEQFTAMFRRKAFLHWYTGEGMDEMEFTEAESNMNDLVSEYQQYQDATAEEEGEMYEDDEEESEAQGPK

Substance	Kd [1] [nM]	fold lower KD than for Tx-MTs [1] [fold]	fold stronger binding than to Tx-MTs [1] [fold]	stoichiometry N [2]	fold reduction of MT-associated GFP fluorescence against untreated MTs [3] [fold]
CENP-F N558 (amino acids 1–558) (domain or fragment)	16	> 5	< 2	2	–
N436-sfGFP (CENP-F amino acids 1–436 fused to super-folding GFP) (domain or fragment)	–	–	–	–	8
